The values that follow come from patent US20230295310A1 (ABCELLERA BIOLOGICS, published 2023).

Assay [1] addresses T1, human CD3 expressed on cells (human, UniProt P07766 23-207; P04234 22-171; P09693 23-182).
T1 construct: whole, on cells; CD3 complex on Jurkat cells and on human primary T cells
The assay is described as follows: flow cytometry, 25 nM. The method, boiled down:
(§1)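 Antibodies at 25 nM in PBS + 2% FBS were incubated with CD3-expressing cells for 30 minutes at 4° C and analysed by flow cytometry. Median fluorescence intensity was normalized to isotype control to give fold over isotype (FOI); FOI ≥10 counted as binding.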

In assay [2] the target is T2, cynomolgus monkey CD3 expressed on primary T cells (cynomolgus monkey, UniProt Q95LI5 22-198; Q95LI8 22-171; Q95LI7 23-181).
T2 construct: whole, on cells; CD3 complex on purified cynomolgus monkey T cells; also called cyno CD3
The experiment in a line: flow cytometry, 25 nM, cyno primary T cells. In a few lines:
as §1

Assay [3] addresses T1, human CD3 expressed on cells. The assay is described as follows: flow cytometry, 25 nM, Jurkat cells (human primary T cells in c4 also <10). On the procedure: (§2) Purified antibodies were confirmed to bind CD3 expressed on cells using the CytoFLEX S or LX flow cytometers (Beckman Coulter). Antibodies were diluted to 25 nM in FACS buffer (PBS+2% FBS) and were incubated with CD3-expressing cells for 30 minutes at 4° C. […] The median fluorescence intensity of the binding signal for each antibody was normalized to the isotype control to obtain a fold over isotype value. An antibody with a fold over isotype (FOI) of ≥10 was considered to be positive for binding.

The target in assay [4] is T3, human CD3 expressed on cells (Jurkat cells; human primary T cells) (human, UniProt P07766 23-207; P04234 22-171; P09693 23-182).
T3 construct: whole, on cells
The experiment in a line: flow cytometry, Jurkat cells. As to the method:
as §2

Assay [5] has as its target T4, cynomolgus monkey CD3 expressed on cyno primary T cells (cynomolgus monkey, UniProt Q95LI5 22-198; Q95LI8 22-171; Q95LI7 23-181).
T4 construct: whole, on cells; CD3 complex on purified cynomolgus monkey CD3 pan T cells; also called cyno CD3
The experiment in a line: flow cytometry, cyno primary T cells. The method, boiled down:
as §1
A general note: A flow cytometer gives signals particle by particle.

Where a chain is given by its changes, count along the chain named.

T2 sequence (Q95LI5 22-198, chain 1 of 3): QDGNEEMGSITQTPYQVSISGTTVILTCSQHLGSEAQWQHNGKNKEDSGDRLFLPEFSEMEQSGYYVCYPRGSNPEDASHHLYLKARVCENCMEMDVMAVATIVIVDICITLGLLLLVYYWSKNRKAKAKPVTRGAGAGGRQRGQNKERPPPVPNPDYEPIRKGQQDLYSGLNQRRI
T2 sequence (Q95LI8 22-171, chain 2 of 3): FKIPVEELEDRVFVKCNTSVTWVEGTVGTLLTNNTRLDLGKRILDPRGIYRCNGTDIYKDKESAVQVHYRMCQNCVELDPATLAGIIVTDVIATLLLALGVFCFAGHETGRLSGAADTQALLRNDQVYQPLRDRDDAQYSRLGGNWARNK
T2 sequence (Q95LI7 23-181, chain 3 of 3): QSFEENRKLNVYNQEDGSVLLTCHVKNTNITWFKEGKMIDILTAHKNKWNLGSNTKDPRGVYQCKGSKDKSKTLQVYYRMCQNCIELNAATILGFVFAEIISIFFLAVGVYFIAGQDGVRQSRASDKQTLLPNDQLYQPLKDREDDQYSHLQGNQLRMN
T4 sequence (Q95LI5 22-198, chain 1 of 3): as the sequence (Q95LI5 22-198, chain 1 of 3) above
T4 sequence (Q95LI8 22-171, chain 2 of 3): as the sequence (Q95LI8 22-171, chain 2 of 3) above
T4 sequence (Q95LI7 23-181, chain 3 of 3): as the sequence (Q95LI7 23-181, chain 3 of 3) above
T1 sequence (P07766 23-207, chain 1 of 3): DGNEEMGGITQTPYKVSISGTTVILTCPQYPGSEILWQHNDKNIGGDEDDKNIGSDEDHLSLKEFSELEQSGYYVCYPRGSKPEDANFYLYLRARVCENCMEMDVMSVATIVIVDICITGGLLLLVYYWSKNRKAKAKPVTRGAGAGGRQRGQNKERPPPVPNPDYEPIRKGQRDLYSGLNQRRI
T1 sequence (P04234 22-171, chain 2 of 3): as the sequence (Q95LI8 22-171, chain 2 of 3) above, with V5I, K15N, V20I, T32S, N33D, N34I, A64T, N74S, L83V, R141H counted along it
T1 sequence (P09693 23-182, chain 3 of 3): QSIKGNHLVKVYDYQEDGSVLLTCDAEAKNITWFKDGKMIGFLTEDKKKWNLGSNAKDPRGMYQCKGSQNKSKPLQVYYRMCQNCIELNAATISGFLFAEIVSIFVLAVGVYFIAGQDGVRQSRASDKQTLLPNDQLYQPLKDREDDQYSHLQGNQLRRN
T3 sequence (P07766 23-207, chain 1 of 3): as the sequence (P07766 23-207, chain 1 of 3) above
T3 sequence (P04234 22-171, chain 2 of 3): as the sequence (Q95LI8 22-171, chain 2 of 3) above, with V5I, K15N, V20I, T32S, N33D, N34I, A64T, N74S, L83V, R141H counted along it
T3 sequence (P09693 23-182, chain 3 of 3): as the sequence (P09693 23-182, chain 3 of 3) above

B1: mAb 108 (antibody, V domains shown)
VH: QVQLVESGGGVVQPGRSLRLSCAASGFTFSSYGMHWVRQAPGKGLEWVAVIWYDGSNKYYEDSVKGRFTISRDNSKNTLHLQMNSLRVEDTAVYYCARGLEFDYWGQGTLVTVSS
VL: DIVMTQTPLSSPVTLGQPASISCRSSQSLVHSDGITYLNWLQQRPGQPPRLLIYKISNRFSGVPDRFSGSGSGTDFTLKISRVEAEDVGVYYCMQATQFPWTFGQGTKVEIK
As to B1, in assay [1], the “Human primary T Cell Binding (FOI)” value came to 0.772 FOI. Also, the binding result in assay [2] and in assay [3] was “no binding (tested: FOI >=10 = positive)” throughout.

B2: mAb 147 (antibody, V domains shown)
VH: QVQLVQSGAEVKKPGASVKVSCKASGYTFTAYHTHWVRQAPGQGLEWMGWIYPKSGRTTYTQKFQGRVTMTRDTSISTVYMELSRLKSDDTAVYYCARVGALLFDYWGQGTLVTVSS
VL: not shown
Take B2: the “Human primary T Cell Binding (FOI)” value in assay [1] came out at 1.58 FOI. For the same molecule, the binding result in assay [2] and in assay [3] was “no binding (tested: FOI >=10 = positive)” each time.

B3: mAb 149 (antibody, V domains shown)
VH: B2 VH
VL: not shown
For B3, the “Human primary T Cell Binding (FOI)” value in assay [1] was 1.45 FOI. In addition, the binding result in assay [2] and in assay [3] was “no binding (tested: FOI >=10 = positive)” throughout.

B4: mAb 151 (antibody, V domains shown)
VH: B2 VH
VL: DIQMTQSPSSLSASVGDRVTITCRASQGIRNDLGWYQQKPGKAPKCLIYAASNLQSGVPSRFSGSGSGTEFTLTISSLQPEDFATYYCLQHNSYPRTFGQGTKVDVK
As for B4, the “Human primary T Cell Binding (FOI)” value in assay [1] is 1.36 FOI. Besides, the binding result in assay [2] and in assay [3] was “no binding (tested: FOI >=10 = positive)” in each case.

B5: mAb 148 (antibody, V domains shown)
VH: B2 VH
VL: EIVLTQSPATLSLSPGERATLSCRASQSVSSYLAWYQQKPGQAPRLLIYDASNRATGIPARFSGSGSGTDFTLTISSLEPEDFAVYYCQQRSNWPFTFGPGTKVDIK
Turning to B5, in assay [1], the “Human primary T Cell Binding (FOI)” value turned out to be 1.44 FOI. Besides, the binding result in assay [2] and in assay [3] was “no binding (tested: FOI >=10 = positive)” in each case.

B6: mAb 150 (antibody, V domains shown)
VH: B2 VH
VL: B5 VL with F96L, P100G, D105E
As for B6, in assay [1], the “Human primary T Cell Binding (FOI)” value came to 1.68 FOI. The binding result in assay [2] and in assay [3] was “no binding (tested: FOI >=10 = positive)” in each case.

B7: mAb 181 (antibody, V domains shown)
VH: QVQLVQSGADMKKPGASVKVSCKASGYTFTDYHIHWVRQAPGQGLEWMGWINPKSGRTMFAQNFQDRVTMTRDTSISTAYMELNRLRSDDSAVYYCARVTQLVFDHWGQGTLVTVSF
VL: AIQMTQSPSSLSASVGDRVTITCRASQGIRNDLGWYQQKPGKAPKLLIYAASSLQSGVPSRFSGSGSGTDFTLTISSLQPEDFATYYCLQDYNYMYTFGQGTKLEIK
notes: VH/VL only
On to B7, for which the binding result in assay [4] and in assay [5] was “no binding (tested: FOI <10 (FOI >=10 = positive); 25 nM)” throughout.

B8: mAb 182 (antibody, V domains shown)
VH: QVQLVQSGAGMKKPGASVRVSCKASGYNFIDYHIHWVRQAPGQGLEWMGWINPKSGRTMSAQKFQGRVTMTRDTSITAAYMELNRLRSDDSAIYYCARVTQLVFDHWGQGTLVTVSL
VL: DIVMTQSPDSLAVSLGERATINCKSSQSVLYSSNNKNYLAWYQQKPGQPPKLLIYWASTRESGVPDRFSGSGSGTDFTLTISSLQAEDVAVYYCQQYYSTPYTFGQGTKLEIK
notes: VH/VL only
On to B8, for which the binding result in assay [4] and in assay [5] was “no binding (tested: FOI <10 (FOI >=10 = positive); 25 nM)” each time.

B9: mAb 168 (antibody, V domains shown)
VH: EVQLVQSGAEVKKPGESLKISCKGSGYIFTSYWIGWVRQMPGKGLEWMGIIYPGDSDTRYSPSFQGQVTISADKSISTAYLQWSSLKASDTAMYYCARRNYYYYMDVWGKGTTVTVSS
VL: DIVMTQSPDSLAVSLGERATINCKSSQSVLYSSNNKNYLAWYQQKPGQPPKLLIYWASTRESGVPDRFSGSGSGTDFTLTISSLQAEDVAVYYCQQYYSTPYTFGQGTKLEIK
Take B9: the “Human primary T Cell Binding (FOI)” value in assay [1] was 1.48 FOI. Also, the binding result in assay [2] and in assay [3] was “no binding (tested: FOI >=10 = positive)” each time.

B10: mAb 107 (antibody, V domains shown)
VH: QVQLQESGPGLVKPSETLSLTCTVSGGSISSYCWSWIRQPPGKGLEWIGYIYNIGSTNFNPSLKSRVTISVDTSKNQFSLKLNSVTAADTAVYYCARGGLYSGNGGRFDPWGRGTLVTVSS
VL: EIVLTQSPGTLSLSPGQTATLSCRASQGVRSNYLAWYQQKPGQAPRLLIYGASSRATGIPVRFSGSGSGTGFTLTMSRLEPEDFAVYYCQQYGSSPWTFGQGSKVEIK
Consider B10, for which the “Human primary T Cell Binding (FOI)” value in assay [1] came to 0.743 FOI. Further, the binding result in assay [2] and in assay [3] was “no binding (tested: FOI >=10 = positive)” in each case.

B11: mAb 138 (antibody, V domains shown)
VH: QVLLVQSGPEVKKPGASVKVSCKASGYTFTDYYLHWVRQAPGQGLDWMGWINPKSGGTRNAQKFQGRVTMTRDTSISTAYMDLTRLRSDDTAVYYCARVGGELLFDYWGQGTLVTVSS
VL: DIVMTQSPLSLSVTPGEPASISCRSSQSLLHSDGYNYLDWFLQKPGQSPHLLIFLGSNRASGVPDRFSGSGSGTDFTLKISRVEAEDVGIYYCMQALQTPLTFGGGTKVEIK
Regarding B11, the “Human primary T Cell Binding (FOI)” value in assay [1] came to 0.796 FOI. Moreover, the binding result in assay [2] and in assay [3] was “no binding (tested: FOI >=10 = positive)” in each case.

B12: mAb 139 (antibody, V domains shown)
VH: QVQLVESGGGVVQPGRSLRLSCAASGFTFSSYAMHWVRQAPGKGLEWVAVIWFDGTNKYYTDSVRGRFTISRDNSKNTLYLQMNSLRAEDTAVYYCATERGITETTRGFDYWGQGTLVTVSS
VL: DIQMTQSPSSLSASVGDRVTITCRTSQGIGNDLDWYQQNPGKAPKRLIYATSNLQSGVPSRFSGSGSGTEFTLTISGLQPEDFTTYYCLRHNSYPYTFGQGTKLEIT
In the case of B12, the “Human primary T Cell Binding (FOI)” value in assay [1] was 0.678 FOI. Further, the binding result in assay [2] and in assay [3] was “no binding (tested: FOI >=10 = positive)” in each case.

B13: mAb 183 (antibody, V domains shown)
VH: QVQLVQSGAEVKKPGASVRVSCKSSGYTFTGYYIHWVRQAPGQGLEWMGWINPKSGRTSYAEKFQGSITMTRDTSINTAYMELTKLRSDDTAVYYCERMGELLLFDYWGQGTLVTVSS
VL: not shown
notes: VH/VL only
Regarding B13, the binding result in assay [4] and in assay [5] was “no binding (tested: FOI <10 (FOI >=10 = positive); 25 nM)” in each case.

B14: mAb 135 (antibody, V domains shown)
VH: EVQLVESGGGLVKTGGSLRLSCVASGFSFKKAWMNWVRQAPGKGLEWVGRIKRNSDGGTTDYAAPVKGRFTLSRDDSKNTLYLQMNSLKTEDTAVYYCTTLDSSSWYVGYYYMDVWGKGTTVTVSS
VL: not shown
B14: the “Human primary T Cell Binding (FOI)” value in assay [1] turned out to be 0.821 FOI. The binding result in assay [2] and in assay [3] was “no binding (tested: FOI >=10 = positive)” each time.

B15: mAb 185 (antibody, V domains shown)
VH: QVQLVQSGSEVKKPGASVRVSCKASGYIFTGYHIHWVRQAPGQGLEWMGWINPKSGRTSYAQNFQARVTMTRDTSINTIHMELSRLRSDDTAIYYCMRVGEQLLFDFWGQGTLVTVSS
VL: not shown
notes: VH/VL only
For B15, the binding result in assay [4] and in assay [5] was “no binding (tested: FOI <10 (FOI >=10 = positive); 25 nM)” each time.

B16: mAb 124 (antibody, V domains shown)
VH: EVQVVESGGDLVQPGGSLRLSCAASGFTFSTYAMTWVRQAPGKGLEWISTISGSGHNTYYADSVKGRFTISRGNSKNTLFLQMNSLRAEDTAVYYCAKENCGGDCLYYMDVWGKGTTVTVSS
VL: DIQMTQSPSSLSASVGDRVTITCRASQSISNYLNWYQQKSGKAPKLLIYFASSLQSGVPSRFGGSGAGTDFTLTISSLQPEDFATYSCQQSYSTPLTFGGGTKVEIK
Turning to B16, in assay [1], the “Human primary T Cell Binding (FOI)” value stood at 0.835 FOI. Further, the binding result in assay [2] and in assay [3] was “no binding (tested: FOI >=10 = positive)” throughout.

B17: mAb 184 (antibody, V domains shown)
VH: QVQLVESGGGVVQPGRSLRLSCAASGFTFSDYGMHWVRQAPGKGLEWVSVIWSDGLNKYYKDSVKGRFTISRDNSKNTLYLQMNSLRAADTAVYYCARLYSGSHYHYFMDVWGKGTSVTVSS
VL: DILLTQSPSFLSASVGDRVTITCRASQDISSSLAWYQQKPKKAPDLLIYTASTLQSGVPSRFSGRGSGTEFTLTISNLQPEDFATYYCQQLKNYPITFGQGTRLEIK
notes: VH/VL only
As for B17, the binding result in assay [4] and in assay [5] was “no binding (tested: FOI <10 (FOI >=10 = positive); 25 nM)” each time.
